From article PMC2671599, “Intraflagellar Transport (IFT) Protein IFT25 Is a Phosphoprotein Component of IFT Complex B and Physically Interacts with IFT27 in Chlamydomonas” (PLoS ONE, 2009) come the findings set out here.

Experiment [1] concerns the target T1, GST-IFT27 (Chlamydomonas reinhardtii …, UniProt A8HN58).
T1 chain: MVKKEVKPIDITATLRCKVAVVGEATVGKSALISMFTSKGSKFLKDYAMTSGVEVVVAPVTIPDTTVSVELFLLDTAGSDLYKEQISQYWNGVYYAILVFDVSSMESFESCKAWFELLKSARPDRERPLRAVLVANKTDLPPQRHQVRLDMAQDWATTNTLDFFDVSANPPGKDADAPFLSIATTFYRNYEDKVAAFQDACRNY
Nature of the experiment: pull-down (GST and amylose resin).

Experiment [2] has as its target T2, GST-IFT27 (Chlamydomonas reinhardtii, UniProt A8HN58 1-204).
T2 construct: IFT27, Rab-like small GTPase component of IFT complex B, Chlamydomonas reinhardtii; also called GST-tagged IFT27; source: E. coli BL21 (DE3) pLysE, pGEX-2T-IFT27, purified (Glutathione Sepharose 4B, eluted with reduced glutathione)
T2 sequence (looked up): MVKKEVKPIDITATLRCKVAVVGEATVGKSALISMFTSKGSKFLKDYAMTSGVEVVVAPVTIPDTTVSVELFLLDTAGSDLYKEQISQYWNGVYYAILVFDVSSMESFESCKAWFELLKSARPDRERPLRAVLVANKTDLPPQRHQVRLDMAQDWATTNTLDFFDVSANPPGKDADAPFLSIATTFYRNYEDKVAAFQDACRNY
The experiment can be described thus: pull-down; GST-IFT27 (~2 ug) on Glutathione Sepharose 4B beads, incubated 1 hour with MBP-IFT25 (~2 ug), MBP-IFT25 plus MBP, or MBP (2 ug); 1xHMDEK, 4 C; supernatant and pellet on SDS-PAGE, Coomassie and immunoblot. The note with it: both partners purified. Background: A western blot detects proteins with antibodies after separation by electrophoresis.

B1: MBP-IFT25 (natural protein, Chlamydomonas reinhardtii, UniProt B8LIX8 1-189, looked up)
chain: MKDYAREENGGLVVMASCSDERFPPENMLDGKDNTFWVTTGMFPQEFVLRLESCIRVSKITTLSLNVRKLAVEKCDQDKPDQFEKVFEVELANRGDRLQTEVHQVNIRAKYLKFILLQGHGEFATVNRVSVVGGDDDGGGYDEPGGGYGSMQRQPSMGYGGGGGSAATGFAADPGNAAAGGGGGFEDEF
notes: IFT25 (Flagellar Associated Protein FAP232) of Chlamydomonas reinhardtii; cDNA of 570 nucleotides, predicted about 20 kD; the 3' end of the FAP232 gene model was predicted incorrectly, the corrected cDNA is GenBank EF593953; Details of vector construction are 'available upon request'; also called MBP-tagged IFT25; FAP232; source: E. coli BL21 (DE3) pLysE, pMAL-c2-IFT25, purified (amylose resin, …)
As for B1, the binding result with GST-IFT27 [1] and with GST-IFT27 [2] was “binds” throughout.
